{"source": "paper doi:10.1101/2025.04.25.650293", "target": "ELMSAN1 (human (endogenous in 143B)) (UniProt Q6PJG2)", "sequence (Q6PJG2 whole entry)": "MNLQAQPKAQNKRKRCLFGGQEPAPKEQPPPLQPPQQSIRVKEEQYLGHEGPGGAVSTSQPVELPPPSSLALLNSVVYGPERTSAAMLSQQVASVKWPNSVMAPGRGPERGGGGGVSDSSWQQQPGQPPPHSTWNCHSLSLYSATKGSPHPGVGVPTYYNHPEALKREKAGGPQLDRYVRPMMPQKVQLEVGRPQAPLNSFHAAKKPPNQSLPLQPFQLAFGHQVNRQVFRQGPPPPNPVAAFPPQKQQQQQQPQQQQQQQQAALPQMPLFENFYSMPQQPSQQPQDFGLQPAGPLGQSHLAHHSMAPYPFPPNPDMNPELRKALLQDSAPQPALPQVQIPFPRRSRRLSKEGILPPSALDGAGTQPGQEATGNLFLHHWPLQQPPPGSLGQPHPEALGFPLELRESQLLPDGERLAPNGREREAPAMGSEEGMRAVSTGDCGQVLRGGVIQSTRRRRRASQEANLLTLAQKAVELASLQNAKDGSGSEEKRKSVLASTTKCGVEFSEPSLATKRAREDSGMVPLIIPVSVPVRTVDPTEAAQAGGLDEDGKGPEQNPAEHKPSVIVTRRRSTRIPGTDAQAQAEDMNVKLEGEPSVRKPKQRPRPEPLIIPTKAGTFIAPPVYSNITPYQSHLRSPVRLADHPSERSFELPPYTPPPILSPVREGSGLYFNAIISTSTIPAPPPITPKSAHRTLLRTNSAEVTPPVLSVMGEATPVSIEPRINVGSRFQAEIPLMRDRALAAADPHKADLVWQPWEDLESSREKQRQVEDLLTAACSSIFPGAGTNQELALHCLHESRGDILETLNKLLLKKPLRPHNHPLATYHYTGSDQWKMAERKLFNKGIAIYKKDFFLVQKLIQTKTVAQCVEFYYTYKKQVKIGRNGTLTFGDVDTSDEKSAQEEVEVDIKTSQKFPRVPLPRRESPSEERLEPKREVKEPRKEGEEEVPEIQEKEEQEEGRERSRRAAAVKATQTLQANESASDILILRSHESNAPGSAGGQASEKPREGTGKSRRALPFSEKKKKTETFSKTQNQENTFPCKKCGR", "assay": "affinity purification with mass spectrometry"}
{"substance": "PDHX (from UniProt O00330 54-501) (natural protein)", "values": [{"measurement": "fold decrease in binding with ISX9 against DMSO", "value": "> 100", "unit": "fold"}]}
